Source: the supplement of paper PMC9112550, “Optimization of the antimicrobial peptide Bac7 by deep mutational scanning” (BMC Biology, 2022)

Test system: Escherichia coli TOP10
Assay: shrunken log2 fold change of peptide-encoding DNA abundance (4.5 h post-induction vs induction); higher = less antimicrobial activity (less host growth inhibition)
Settings: time post-induction: 4.5 h; library: site-saturation at positions 5, 18, 19, 20
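Further: peptides expressed intracellularly from a pBAD plasmid library in pooled LB shake-flask culture, induced with 0.3% L-arabinose, DNA abundance read by NGS, three biological replicates, DESeq2 with apeglm shrinkage.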

RRIRSRPPRLPRPRPRPGNQPRP
shrunken log2 fold change: -0.0918

RRIRYRPPRLPRPRPRPICIPRP
shrunken log2 fold change: -0.08

RRIRNRPPRLPRPRPRPVGVPRP
shrunken log2 fold change: -0.0443

RRIRFRPPRLPRPRPRPEWLPRP
shrunken log2 fold change: 0.402

RRIRFRPPRLPRPRPRPCCCPRP
shrunken log2 fold change: 0.0783

RRIRYRPPRLPRPRPRPYTMPRP
shrunken log2 fold change: -0.301

RRIRDRPPRLPRPRPRPTGQPRP
shrunken log2 fold change: -0.0665

RRIRKRPPRLPRPRPRPWCHPRP
shrunken log2 fold change: -0.15

RRIRLRPPRLPRPRPRPYNKPRP
shrunken log2 fold change: 1.41

RRIRWRPPRLPRPRPRPYFEPRP
shrunken log2 fold change: -0.483

RRIRMRPPRLPRPRPRPTTSPRP
shrunken log2 fold change: 0.499

RRIRIRPPRLPRPRPRPSTIPRP
shrunken log2 fold change: -0.361

RRIRRRPPRLPRPRPRPNSDPRP
shrunken log2 fold change: -0.17

RRIRWRPPRLPRPRPRPQKQPRP
shrunken log2 fold change: 0.184

RRIRSRPPRLPRPRPRPNTIPRP
shrunken log2 fold change: -0.511

RRIRHRPPRLPRPRPRPVFYPRP
shrunken log2 fold change: -0.751

RRIRTRPPRLPRPRPRPNEAPRP
shrunken log2 fold change: 0.172

RRIRKRPPRLPRPRPRPPVCPRP
shrunken log2 fold change: 0.336

RRIRMRPPRLPRPRPRPADKPRP
shrunken log2 fold change: 0.318

RRIRWRPPRLPRPRPRPGRPPRP
shrunken log2 fold change: 0.42

RRIRDRPPRLPRPRPRPFCIPRP
shrunken log2 fold change: -0.0778

RRIRERPPRLPRPRPRPCYYPRP
shrunken log2 fold change: -0.312

RRIRHRPPRLPRPRPRPEFFPRP
shrunken log2 fold change: 0.0155

RRIRRRPPRLPRPRPRPYFGPRP
shrunken log2 fold change: -0.163

RRIRGRPPRLPRPRPRPGPMPRP
shrunken log2 fold change: 0.966

RRIRSRPPRLPRPRPRPALDPRP
shrunken log2 fold change: 0.137

RRIRQRPPRLPRPRPRPYKNPRP
shrunken log2 fold change: -1.02

RRIRIRPPRLPRPRPRPNNFPRP
shrunken log2 fold change: -0.388

RRIRNRPPRLPRPRPRPKKLPRP
shrunken log2 fold change: -0.0729

RRIRMRPPRLPRPRPRPWHFPRP
shrunken log2 fold change: 0.201

RRIRARPPRLPRPRPRPRFMPRP
shrunken log2 fold change: 0.0944

RRIRSRPPRLPRPRPRPLGDPRP
shrunken log2 fold change: 0.0783

RRIRKRPPRLPRPRPRPMVLPRP
shrunken log2 fold change: -0.191

RRIRCRPPRLPRPRPRPYSNPRP
shrunken log2 fold change: -0.655

RRIRNRPPRLPRPRPRPEHPPRP
shrunken log2 fold change: 0.115

RRIRGRPPRLPRPRPRPPIEPRP
shrunken log2 fold change: 0.196

RRIRHRPPRLPRPRPRPEKIPRP
shrunken log2 fold change: 0.0327

RRIRKRPPRLPRPRPRPDAAPRP
shrunken log2 fold change: 0.976

RRIRCRPPRLPRPRPRPWTKPRP
shrunken log2 fold change: -0.402

RRIRIRPPRLPRPRPRPEFHPRP
shrunken log2 fold change: 0.0992

RRIRTRPPRLPRPRPRPWILPRP
shrunken log2 fold change: -0.23

RRIRGRPPRLPRPRPRPNCKPRP
shrunken log2 fold change: 0.21

RRIRMRPPRLPRPRPRPRYCPRP
shrunken log2 fold change: -0.164

RRIRGRPPRLPRPRPRPRIDPRP
shrunken log2 fold change: 0.731

RRIRGRPPRLPRPRPRPSWHPRP
shrunken log2 fold change: 0.0802

RRIRMRPPRLPRPRPRPPSVPRP
shrunken log2 fold change: 0.777

RRIRVRPPRLPRPRPRPIIIPRP
shrunken log2 fold change: -0.235

RRIRTRPPRLPRPRPRPHDNPRP
shrunken log2 fold change: -0.574

RRIRWRPPRLPRPRPRPYAIPRP
shrunken log2 fold change: -0.347

RRIRYRPPRLPRPRPRPLCEPRP
shrunken log2 fold change: -0.238

RRIRTRPPRLPRPRPRPFCKPRP
shrunken log2 fold change: -0.132

RRIRCRPPRLPRPRPRPCWEPRP
shrunken log2 fold change: -0.0142

RRIRGRPPRLPRPRPRPMPMPRP
shrunken log2 fold change: 0.352

RRIRRRPPRLPRPRPRPENDPRP
shrunken log2 fold change: 0.785

RRIRHRPPRLPRPRPRPHQYPRP
shrunken log2 fold change: -0.52

RRIRSRPPRLPRPRPRPTDWPRP
shrunken log2 fold change: 0.354

RRIRTRPPRLPRPRPRPCCMPRP
shrunken log2 fold change: -0.197

RRIRHRPPRLPRPRPRPKKYPRP
shrunken log2 fold change: -0.806

RRIRMRPPRLPRPRPRPNVAPRP
shrunken log2 fold change: 0.099

RRIRCRPPRLPRPRPRPQTDPRP
shrunken log2 fold change: -0.00613

RRIRLRPPRLPRPRPRPLACPRP
shrunken log2 fold change: -0.454

RRIRIRPPRLPRPRPRPKSSPRP
shrunken log2 fold change: -0.143

RRIRYRPPRLPRPRPRPASHPRP
shrunken log2 fold change: -1

RRIRVRPPRLPRPRPRPKCFPRP
shrunken log2 fold change: -0.213

RRIRRRPPRLPRPRPRPSRCPRP
shrunken log2 fold change: -0.0309

RRIRVRPPRLPRPRPRPDRIPRP
shrunken log2 fold change: -0.135

RRIRIRPPRLPRPRPRPADIPRP
shrunken log2 fold change: 0.00782

RRIRYRPPRLPRPRPRPSKMPRP
shrunken log2 fold change: -0.365

RRIRDRPPRLPRPRPRPLCRPRP
shrunken log2 fold change: -0.0528

RRIRIRPPRLPRPRPRPCGHPRP
shrunken log2 fold change: 0.00489

RRIRYRPPRLPRPRPRPMGAPRP
shrunken log2 fold change: -0.207

RRIRERPPRLPRPRPRPWFPPRP
shrunken log2 fold change: -0.206

RRIRHRPPRLPRPRPRPQSTPRP
shrunken log2 fold change: -0.395

RRIRRRPPRLPRPRPRPPHCPRP
shrunken log2 fold change: 1.08

RRIRYRPPRLPRPRPRPIGNPRP
shrunken log2 fold change: 0.167

RRIRTRPPRLPRPRPRPPDFPRP
shrunken log2 fold change: 0.0547

RRIRLRPPRLPRPRPRPERDPRP
shrunken log2 fold change: -0.189

RRIRIRPPRLPRPRPRPDWPPRP
shrunken log2 fold change: 0.0262

RRIRDRPPRLPRPRPRPFKPPRP
shrunken log2 fold change: 0.00312

RRIRTRPPRLPRPRPRPLWMPRP
shrunken log2 fold change: -0.119

RRIRFRPPRLPRPRPRPCESPRP
shrunken log2 fold change: 0.00749

RRIRWRPPRLPRPRPRPKMCPRP
shrunken log2 fold change: -0.0087

RRIRKRPPRLPRPRPRPEVKPRP
shrunken log2 fold change: 0.085

RRIRKRPPRLPRPRPRPCWKPRP
shrunken log2 fold change: 0.0714

RRIRNRPPRLPRPRPRPTLQPRP
shrunken log2 fold change: 0.0909

RRIRMRPPRLPRPRPRPHLTPRP
shrunken log2 fold change: -0.0375

RRIRTRPPRLPRPRPRPLQSPRP
shrunken log2 fold change: -0.00232

RRIRLRPPRLPRPRPRPRWHPRP
shrunken log2 fold change: 0.199

RRIRSRPPRLPRPRPRPVATPRP
shrunken log2 fold change: 0.707

RRIRRRPPRLPRPRPRPCNFPRP
shrunken log2 fold change: -0.0159

RRIRCRPPRLPRPRPRPQKPPRP
shrunken log2 fold change: 0.0368

RRIRTRPPRLPRPRPRPNCAPRP
shrunken log2 fold change: -0.254

RRIRFRPPRLPRPRPRPYIIPRP
shrunken log2 fold change: -0.395

RRIRYRPPRLPRPRPRPDDPPRP
shrunken log2 fold change: -0.239

RRIRTRPPRLPRPRPRPYACPRP
shrunken log2 fold change: -0.216

RRIRMRPPRLPRPRPRPKDEPRP
shrunken log2 fold change: 1.75

RRIRIRPPRLPRPRPRPGSWPRP
shrunken log2 fold change: 0.227

RRIRTRPPRLPRPRPRPSYEPRP
shrunken log2 fold change: -0.352

RRIRWRPPRLPRPRPRPDLDPRP
shrunken log2 fold change: 0.311

RRIRTRPPRLPRPRPRPGRGPRP
shrunken log2 fold change: 0.605

RRIRMRPPRLPRPRPRPITRPRP
shrunken log2 fold change: 0.248

RRIRIRPPRLPRPRPRPCSHPRP
shrunken log2 fold change: 0.0454

RRIRTRPPRLPRPRPRPTKLPRP
shrunken log2 fold change: -0.0813

RRIRWRPPRLPRPRPRPKECPRP
shrunken log2 fold change: 0.236

RRIRIRPPRLPRPRPRPWNMPRP
shrunken log2 fold change: 0.0777

RRIRTRPPRLPRPRPRPNYIPRP
shrunken log2 fold change: -0.74

RRIRMRPPRLPRPRPRPFSEPRP
shrunken log2 fold change: 0.273

RRIRRRPPRLPRPRPRPMAPPRP
shrunken log2 fold change: 0.665

RRIRERPPRLPRPRPRPWWWPRP
shrunken log2 fold change: 0.0554

RRIRMRPPRLPRPRPRPFGEPRP
shrunken log2 fold change: 0.0461

RRIRGRPPRLPRPRPRPLKEPRP
shrunken log2 fold change: 0.343

RRIRMRPPRLPRPRPRPICRPRP
shrunken log2 fold change: 0.297

RRIRLRPPRLPRPRPRPVTIPRP
shrunken log2 fold change: 0.0221

RRIRARPPRLPRPRPRPFMQPRP
shrunken log2 fold change: -0.0876

RRIRPRPPRLPRPRPRPISIPRP
shrunken log2 fold change: -0.109

RRIRTRPPRLPRPRPRPIWGPRP
shrunken log2 fold change: -0.144

RRIRMRPPRLPRPRPRPRAYPRP
shrunken log2 fold change: 0.426

RRIRYRPPRLPRPRPRPMYLPRP
shrunken log2 fold change: -0.0959

RRIRNRPPRLPRPRPRPFGWPRP
shrunken log2 fold change: 0.0221

RRIRHRPPRLPRPRPRPMCWPRP
shrunken log2 fold change: -0.178

RRIRHRPPRLPRPRPRPTKMPRP
shrunken log2 fold change: 0.0724

RRIRQRPPRLPRPRPRPLTHPRP
shrunken log2 fold change: 0.045

RRIRYRPPRLPRPRPRPRRRPRP
shrunken log2 fold change: -0.0051

RRIRIRPPRLPRPRPRPMLRPRP
shrunken log2 fold change: -0.119

RRIRWRPPRLPRPRPRPRYWPRP
shrunken log2 fold change: 0.185

RRIRHRPPRLPRPRPRPYVQPRP
shrunken log2 fold change: -1.29

RRIRQRPPRLPRPRPRPQNKPRP
shrunken log2 fold change: -0.22

RRIRQRPPRLPRPRPRPYSFPRP
shrunken log2 fold change: -0.141

RRIRKRPPRLPRPRPRPPLTPRP
shrunken log2 fold change: 0.542

RRIRRRPPRLPRPRPRPIVIPRP
shrunken log2 fold change: -0.125

RRIRNRPPRLPRPRPRPKCFPRP
shrunken log2 fold change: -0.192

RRIRLRPPRLPRPRPRPDAPPRP
shrunken log2 fold change: 0.313

RRIRNRPPRLPRPRPRPLPMPRP
shrunken log2 fold change: -0.14

RRIRHRPPRLPRPRPRPWWLPRP
shrunken log2 fold change: -0.0295

RRIRFRPPRLPRPRPRPEQFPRP
shrunken log2 fold change: -0.115

RRIRHRPPRLPRPRPRPKPLPRP
shrunken log2 fold change: 0.127

RRIRARPPRLPRPRPRPDDQPRP
shrunken log2 fold change: 1.41

RRIRWRPPRLPRPRPRPVNDPRP
shrunken log2 fold change: 0.118

RRIRVRPPRLPRPRPRPSNQPRP
shrunken log2 fold change: -0.507

RRIRIRPPRLPRPRPRPISFPRP
shrunken log2 fold change: 0.00109

RRIRNRPPRLPRPRPRPDWHPRP
shrunken log2 fold change: -0.394

RRIRKRPPRLPRPRPRPVRNPRP
shrunken log2 fold change: 0.308

RRIRNRPPRLPRPRPRPTPPPRP
shrunken log2 fold change: 0.49

RRIRHRPPRLPRPRPRPVVTPRP
shrunken log2 fold change: -0.0256

RRIRGRPPRLPRPRPRPRNKPRP
shrunken log2 fold change: 0.765

RRIRARPPRLPRPRPRPIHNPRP
shrunken log2 fold change: -0.0611

RRIRTRPPRLPRPRPRPWLVPRP
shrunken log2 fold change: -0.0639

RRIRLRPPRLPRPRPRPKQDPRP
shrunken log2 fold change: -0.199

RRIRTRPPRLPRPRPRPCWCPRP
shrunken log2 fold change: -0.0474

RRIRNRPPRLPRPRPRPKLRPRP
shrunken log2 fold change: 0.00281
